This is an account of results in the supplement of paper PMC5998384.

Series [1] deals with HeLa Kyoto. As to the kind of experiment: solubility in G1/S (NP-40 vs SDS abundance) (log2 ratio); higher = more soluble. Particulars: cell cycle stage: G1/S.
Series [2] concerns HeLa Kyoto. The series is described as follows: solubility change mitosis vs G1/S (difference of NP-40 vs SDS log2 ratios) (log2 ratio difference); higher = more soluble in mitosis.
Series [3] deals with HeLa Kyoto. The series is described as follows: thermal stability score vs G1/S (z-score of summed log2 fold changes over temperatures); higher = more thermally stable than in G1/S.
Series [4] relates to HeLa Kyoto. The series is described as follows: melting temperature (median over replicates), in situ; higher = more thermally stable.
The mark [5] stands for this setting: cell cycle stage: early G1 (4.5 h after nocodazole release).
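For melting temperature (median over replicates), in situ in this document: HeLa Kyoto cells synchronized by double thymidine or nocodazole block, proteins quantified by TMT10plex mass spectrometry, three independent biological replicates.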
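For solubility change mitosis vs G1/S (difference of NP-40 vs SDS log2 ratios) in this document: synchronized HeLa Kyoto cells (double thymidine block for G1/S, nocodazole release for mitosis), protein amounts in NP-40 versus SDS lysates quantified by mass spectrometry, three biological replicates.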
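For solubility in G1/S (NP-40 vs SDS abundance) in this document: HeLa Kyoto cells arrested at G1/S by double thymidine block, proteins quantified by TMT10plex mass spectrometry in mild NP-40 versus SDS extracts, three biological replicates.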
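For thermal stability score vs G1/S (z-score of summed log2 fold changes over temperatures) in this document: synchronized HeLa Kyoto cells, proteins quantified by TMT10plex mass spectrometry, three biological replicates, mitosis taken 0.5 h after nocodazole release, G1/S directly after double thymidine block.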

As for “MAGAAAESGRELWTFAGSRDPSAPRLAYGYGPGSLRELRAREFSRLAGTVYLDHAGATLFSQSQLESFTSDLMENTYGNPHSQNISSKLTHDTVEQVRYRILAHFHTTAEDYTVIFTAGSTAALKLVAEAFPWVSQGPESSGSRFCYLTDSHTSVVGMRNVTMAINVISTPVRPEDLWSAEERSASASNPDCQLPHLFCYPAQSNFSGVRYPLSWIEEVKSGRLHPVSTPGKWFVLLDAASYVSTSPLDLSAHQADFVPISFYKIFGFPTGLGALLVHNRAAPLLRKTYFGGGTASAYLAGEDFYIPRQSVAQRFEDGTISFLDVIALKHGFDTLERLTGGMENIKQHTFTLAQYTYVALSSLQYPNGAPVVRIYSDSEFSSPEVQGPIINFNVLDDKGNIIGYSQVDKMASLYNIHLRTGCFCNTGACQRHLGISNEMVRKHFQAGHVCGDNMDLIDGQPTGSVRISFGYMSTLDDVQAFLRFIIDTRLHSSGDWPVPQAHADTGETGAPSADSQADVIPAVMGRRSLSPQEDALTGSRVWNNSSTVNAVPVAPPVCDVARTQPTPSEKAAGVLEGALGPHVVTNLYLYPIKSCAAFEVTRWPVGNQGLLYDRSWMVVNHNGVCLSQKQEPRLCLIQPFIDLRQRIMVIKAKGMEPIEVPLEENSERTQIRQSRVCADRVSTYDCGEKISSWLSTFFGRPCHLIKQSSNSQRNAKKKHGKDQLPGTMATLSLVNEAQYLLINTSSILELHRQLNTSDENGKEELFSLKDLSLRFRANIIINGKRAFEEEKWDEISIGSLRFQVLGPCHRCQMICIDQQTGQRNQHVFQKLSESRETKVNFGMYLMHASLDLSSPCFLSVGSQVLPVLKENVEGHDLPASEKHQDVTS [MOCOS]”, the “solubility in G1/S (log2)” value in series [1] was -0.123. Moreover, the “solubility change mitosis (log2)” value in series [2] is -0.13. Also, the thermal stability score was -1.28 in series [3] (setting [5]) and -1.96 in series [3] (cell cycle stage: mitosis). In addition, the values for the melting temperature in series [4] (cell cycle stage: G1/S) and in series [4] (cell cycle stage: mitosis) were 53.3 °C and 53.6 °C, respectively.

On to “MAGAATQASLESAPRIMRLVAECSRSRARAGELWLPHGTVATPVFMPVGTQATMKGITTEQLDALGCRICLGNTYHLGLRPGPELIQKANGLHGFMNWPHNLLTDSGGFQMVSLVSLSEVTEEGVRFRSPYDGNETLLSPEKSVQIQNALGSDIIMQLDDVVSSTVTGPRVEEAMYRSIRWLDRCIAAHQRPDKQNLFAIIQGGLDADLRATCLEEMTKRDVPGFAIGGLSGGESKSQFWRMVALSTSRLPKDKPRYLMGVGYATDLVVCVALGCDMFDCVFPTRTARFGSALVPTGNLQLRKKVFEKDFGPIDPECTCPTCQKHSRAFLHALLHSDNTAALHHLTVHNIAYQLQLMSAVRTSIVEKRFPDFVRDFMGAMYGDPTLCPTWATDALASVGITLG [QTRT1]”, for which the “solubility in G1/S (log2)” value in series [1] is 0.174. The “solubility change mitosis (log2)” value in series [2] was -0.0923. Further, the thermal stability score in series [3] (setting [5]) was determined as 1.96; in series [3] (cell cycle stage: mitosis), 0.0564. Moreover, the melting temperature came out at 55.6 °C in series [4] (cell cycle stage: G1/S) and 54.9 °C in series [4] (cell cycle stage: mitosis).

Turning to “MAGAGGGNDIQWCFSQVKGAVDDDVAEADIISTVEFNHSGELLATGDKGGRVVIFQQEQENKIQSHSRGEYNVYSTFQSHEPEFDYLKSLEIEEKINKIRWLPQKNAAQFLLSTNDKTIKLWKISERDKRPEGYNLKEEDGRYRDPTTVTTLRVPVFRPMDLMVEASPRRIFANAHTYHINSISINSDYETYLSADDLRINLWHLEITDRSFNIVDIKPANMEELTEVITAAEFHPNSCNTFVYSSSKGTIRLCDMRASALCDRHSKLFEEPEDPSNRSFFSEIISSISDVKFSHSGRYMMTRDYLSVKIWDLNMENRPVETYQVHEYLRSKLCSLYENDCIFDKFECCWNGSDSVVMTGSYNNFFRMFDRNTKRDITLEASRENNKPRTVLKPRKVCASGKRKKDEISVDSLDFNKKILHTAWHPKENIIAVATTNNLYIFQDKVN [PPP2R2A]”, the “solubility in G1/S (log2)” value in series [1] is -0.0929. For the same sequence, in series [2], the “solubility change mitosis (log2)” value was -0.194. The thermal stability score was -0.543 in series [3] (setting [5]) and -3.42 in series [3] (cell cycle stage: mitosis). Moreover, the melting temperature in series [4] (cell cycle stage: G1/S) is 54.7 °C; in series [4] (cell cycle stage: mitosis), 54.2 °C.

With “MAGAIASRMSFSSLKRKQPKTFTVRIVTMDAEMEFNCEMKWKGKDLFDLVCRTLGLRETWFFGLQYTIKDTVAWLKMDKKVLDHDVSKEEPVTFHFLAKFYPENAEEELVQEITQHLFFLQVKKQILDEKIYCPPEASVLLASYAVQAKYGDYDPSVHKRGFLAQEELLPKRVINLYQMTPEMWEERITAWYAEHRGRARDEAEMEYLKIAQDLEMYGVNYFAIRNKKGTELLLGVDALGLHIYDPENRLTPKISFPWNEIRNISYSDKEFTIKPLDKKIDVFKFNSSKLRVNKLILQLCIGNHDLFMRRRKADSLEVQQMKAQAREEKARKQMERQRLAREKQMREEAERTRDELERRLLQMKEEATMANEALMRSEETADLLAEKAQITEEEAKLLAQKAAEAEQEMQRIKATAIRTEEEKRLMEQKVLEAEVLALKMAEESERRAKEADQLKQDLQEAREAERRAKQKLLEIATKPTYPPMNPIPAPLPPDIPSFNLIGDSLSFDFKDTDMKRLSMEIEKEKVEYMEKSKHLQEQLNELKTEIEALKLKERETALDILHNENSDRGGSSKHNTIKKLTLQSAKSRVAFFEEL [NF2]”, the “solubility in G1/S (log2)” value in series [1] was -0.161. Besides, the “solubility change mitosis (log2)” value in series [2] is -0.0393. Further, the figures for the thermal stability score in series [3] (setting [5]) and in series [3] (cell cycle stage: mitosis) were 0.0456 and 0.294, respectively. The melting temperature in series [4] (cell cycle stage: G1/S) turned out to be 51.6 °C; in series [4] (cell cycle stage: mitosis), 50.7 °C.
